# According to publication PMC7320910 (Nature microbiology, 2020):
# Several values for one entry are separate records, joined by “and”; a condition that tells them apart may be missing. Equal entries are not always repeated.
# B1: FliF (flagellar MS-ring protein) from Salmonella enterica serovar Typhimurium (natural protein)
# chain: MSATASTATQPKPLEWLNRLRANPRIPLIVAGSAAVAIVVAMVLWAKTPDYRTLFSNLSDQDGGAIVAQLTQMNIPYRFANGSGAIEVPADKVHELRLRLAQQGLPKGGAVGFELLDQEKFGISQFSEQVNYQRALEGELARTIETLGPVKSARVHLAMPKPSLFVREQKSPSASVTVTLEPGRALDEGQISAVVHLVSSAVAGLPPGNVTLVDQSGHLLTQSNTSGRDLNDAQLKFANDVESRIQRRIEAILSPIVGNGNVHAQVTAQLDFANKEQTEEHYSPNGDASKATLRSRQLNISEQVGAGYPGGVPGALSNQPAPPNEAPIATPPTNQQNAQNTPQTSTSTNSNSAGPRSTQRNETSNYEVDRTIRHTKMNVGDIERLSVAVVVNYKTLADGKPLPLTADQMKQIEDLTREAMGFSDKRGDTLNVVNSPFSAVDNTGGELPFWQQQSFIDQLLAAGRWLLVLVVAWILWRKAVRPQLTRRVEEAKAAQEQAQVRQETEEAVEVRLSKDEQLQQRRANQRLGAEVMSQRIREMSDNDPRVVALVIRQWMSNDHE
# Molecular target: the molecule itself
# Assay: cryo-EM structure
protein,measurement,value
B1,stoichiometry N,33 and 34 and 32 and 35
